Measurements: patent US9029105B2, “Microorganism producing L-methionine precursor and method of producing L-methionine and organic acid from the L-methionine precursor” (CJ Cheiljedang Corporation, priority 2006, dated 2015)

What was measured:
Format in all cases: biochemical
[1] = HPLC of final methionine and succinic acid after one-hour reaction with O-succinylhomoserine; conditions: from O-succinylhomoserine
Description: (§1) First, O-succinylhomoserine (Sigma, USA) was dissolved in 0.1 M potassium phosphate buffer (pH 7.5) with the concentration of 3 mM. Pyridoxal 5′-phosphate (Sigma, USA) used as a coenzyme was added into the reaction solution with the final concentration of 10 μM. Methylmercaptan (Methylmercaptan, Tokyo Kasei Organic Chemicals, Japan) used as another substrate was added into the reaction solution with the final concentration of 2 mM. 1 ml of the reaction solution was placed in 37° C., to which 10 μL of each enzyme solution (protein conc.: 5 mg/ml) was added. 100 μL of the reaction solution was collected every 5-10 minutes and added into 900 μL of 4 mg/ml DTNB (Sigma, USA) solution. OD415 was measured to confirm the on-going of the reaction.
Upon completion of one-hour reaction, HPLC was performed to confirm the final productions of methionine and succinic acid.

[2] = Conversion reaction of O-acetylhomoserine with methylmercaptan by enzyme solutions (DTNB, OD415); conditions: OAHS as a substrate
Description: as §1
DTNB was reacted with SH group of methylmercaptan remaining in the reaction solution and thus synthesized a yellow substance. Thus, whether the reaction was going on or not was checked by observing the disappearance of yellow color of the reaction solution resulted from the conversion reaction of methylmercaptan into methionine.
Experiment was performed with O-acetylhomoserine by the same manner as described in Example <3-20>. O-acetylhomoserine was purified from the supernatant of fermented solution. The same reaction solutions and enzyme solutions as used for the experiment with O-succinylhomoserine were used for the reaction. […]

[3] = Feed-back inhibition of converting enzyme by methionine, OAHS as substrate; conditions: presence of methionine
Description: (§2) Experiment was performed with O-acetylhomoserine by the same manner as described in Example <3-20>. O-acetylhomoserine was purified from the supernatant of fermented solution. The same reaction solutions and enzyme solutions as used for the experiment with O-succinylhomoserine were used for the reaction. […] Upon completion of one-hour reaction, HPLC was performed to confirm the final productions of methionine and […].
Feed-back inhibition in the presence or absence of methionine was identified by the same manner as described in Examples <3-20> and <3-21>. The reaction solutions were prepared by the same manner above and the same reaction was performed by adding or not adding 5 g/L of methionine in the each reaction solution. The reaction speed in the reaction solution without methionine was regarded as 100%, based on which the remaining activity in the presence of methionine was calculated as %.

[4] = HPLC of final methionine and acetic acid after one-hour reaction with O-acetylhomoserine; conditions: from O-acetylhomoserine
Description: as §1, §2

B1: Pseudomonas aurogenosa MetZ: O-succinylhomoserine sulfhydrylase derived from Pseudomonas aeruginosa, cell extract enzyme solution (protein, UniProt P55218 1-403, looked up)
O-succinylhomoserine …: MTQDWDAGRLDSDLEGAAFDTLAVRAGQRRTPEGEHGEALFTTSSYVFRTAADAAARFAGEVPGNVYSRYTNPTVRTFEERIAALEGAEQAVATASGMSAILALVMSLCSSGDHVLVSRSVFGSTISLFDKYFKRFGIQVDYPPLSDLAAWEAACKPNTKLFFVESPSNPLAELVDIAALAEIAHAKGALLAVDNCFCTPALQQPLKLGADVVIHSATKYIDGQGRGMGGVVAGRGEQMKEVVGFLRTAGPTLSPFNAWLFLKGLETLRIRMQAHSASALALAEWLERQPGIERVYYAGLPSHPQHELARRQQSGFGAVVSFDVKGGRDAAWRFIDATRMVSITTNLGDTKTTIAHPATTSHGRLSPEDRARAGIGDSLIRVAVGLEDLDDLKADMARGLAAL
modifications: cell extract
notes: O-succinylhomoserine sulfhydrylase derived from Pseudomonas aeruginosa, cell extract enzyme solution
amount of Methionine [1]: 0.22 g/L
amount of Succinic acid [1]: 0.17 g/L

B2: Leptospira meyeri MetY: O-acetylhomoserine sulfhydrylase derived from Leptospira meyeri (protein, UniProt P94890 1-442, looked up)
O-acetyl-L-homoserine …: MVGPSGESMPRNFKPETIALHGGQEPDPTTTSRAVPLYQTTSYVFKDTDHAARLFGLQEFGNIYTRLMNPTTDVLEKRVAALEGGVAALATASGQSAEMLALLNIVEAGQEIVASSSLYGGTYNLLHYTFPKLGIKVHFVDQSDPENFRKASNDKTRAFYAETLGNPKLDTLDIAAVSKVAKEVGVPLVIDNTMPSPYLVNPLKHGADIVVHSLTKFLGGHGTSIGGIIIDGGSFNWGNGKFKNFTEPDPSYHGLKFWEVFGKFEPFGGVNIAFILKARVQGLRDLGPAISPFNAWQILQGVETLPLRMERHSGNALKVAEFLQKHPKIEWVNYPGLSTDKNYATAKKYHERGLFGAIVGFEIKGGVEKAKKFIDGLELFSLLANIGDAKSLAIHPASTTHQQLTGPEQISAGVTPGFVRLSVGLENIDDILVDLEEALKNI
enzyme activity with O-acetylhomoserine (FIG. 6), in words [2]: high enzyme activities
inhibition of enzyme activity by methionine, in words [3]: inhibited by methionine
amount of Acetic acid [4]: 0.05 g/L
amount of Methionine [4]: 0.15 g/L

B3: Escherichia Coli K12 MetB: cystathionine gamma synthase derived from E. coli, cell extract enzyme solution (protein, UniProt P00935 1-386, looked up)
Cystathionine gamma-synthase: MTRKQATIAVRSGLNDDEQYGCVVPPIHLSSTYNFTGFNEPRAHDYSRRGNPTRDVVQRALAELEGGAGAVLTNTGMSAIHLVTTVFLKPGDLLVAPHDCYGGSYRLFDSLAKRGCYRVLFVDQGDEQALRAALAEKPKLVLVESPSNPLLRVVDIAKICHLAREVGAVSVVDNTFLSPALQNPLALGADLVLHSCTKYLNGHSDVVAGVVIAKDPDVVTELAWWANNIGVTGGAFDSYLLLRGLRTLVPRMELAQRNAQAIVKYLQTQPLVKKLYHPSLPENQGHEIAARQQKGFGAMLSFELDGDEQTLRRFLGGLSLFTLAESLGGVESLISHAATMTHAGMAPEARAAAGISETLLRISTGIEDGEDLIADLENGFRAANKG
amount of Methionine [1]: 0.14 g/L
amount of Succinic acid [1]: 0.1 g/L
